Assay results: patent US20060246519A1 (UTI LIMITED PARTNERSHIP, published 2006)

Columns and labels:
[1] = target: the molecule itself; assay: SDS-PAGE/Western blot of non-boiled culture supernatant; self-association of subunits
[2] = target: the molecule itself; assay: SDS-PAGE/Western blot of non-boiled culture supernatant, 20 uM biotin in medium; self-association of subunits
Method: FIG. 3: Western blot analysis of cell culture supernatants from B. subtilis strains producing streptavidin muteins carrying a single mutation. 15 μl of non-boiled sample of culture supernatant was loaded to each lane. Samples on the left set were collected from B. subtilis strains cultured in super-rich medium without additional supplement of biotin. Samples on the right set were collected from B. subtilis strains cultured in super-rich medium with additional supplementation of biotin (20 μM). The blot was probed with polyclonal antibodies against streptavidin and developed using 4-chloro-1-napthol (Bio-Rad) as the colour development agent. […] M, molecular weight markers; wt, wild type streptavidin.
FIG. 4: Analysis of culture supernatants from B. subtilis strains producing streptavidin muteins carrying different combinations of mutations. All these strains were cultivated in super-rich medium supplemented with biotin (20 μM). The 15 μl of non-boiled samples of culture supernatants were loaded. FIG. 4A. Coomassie blue stained SDS-polyacrylamide gel. Bands corresponding to tetrameric and monomeric streptavidin are marked by an asterisk and an arrowhead, respectively. FIG. 4B. Western blot probed with polyclonal antibodies against streptavidin. […]

[3] = target: T1, biotin-conjugated bovine serum albumin (bovine, UniProt P02769 25-607); assay: SPR (BIAcoreX), biotin-conjugated BSA immobilised on CM5 chip, mutein in solution
T1 construct: Immobilised on a CM5 sensor chip; also called biotinylated bovine serum albumin (BSA)
T1 sequence (P02769 25-607 limits assumed): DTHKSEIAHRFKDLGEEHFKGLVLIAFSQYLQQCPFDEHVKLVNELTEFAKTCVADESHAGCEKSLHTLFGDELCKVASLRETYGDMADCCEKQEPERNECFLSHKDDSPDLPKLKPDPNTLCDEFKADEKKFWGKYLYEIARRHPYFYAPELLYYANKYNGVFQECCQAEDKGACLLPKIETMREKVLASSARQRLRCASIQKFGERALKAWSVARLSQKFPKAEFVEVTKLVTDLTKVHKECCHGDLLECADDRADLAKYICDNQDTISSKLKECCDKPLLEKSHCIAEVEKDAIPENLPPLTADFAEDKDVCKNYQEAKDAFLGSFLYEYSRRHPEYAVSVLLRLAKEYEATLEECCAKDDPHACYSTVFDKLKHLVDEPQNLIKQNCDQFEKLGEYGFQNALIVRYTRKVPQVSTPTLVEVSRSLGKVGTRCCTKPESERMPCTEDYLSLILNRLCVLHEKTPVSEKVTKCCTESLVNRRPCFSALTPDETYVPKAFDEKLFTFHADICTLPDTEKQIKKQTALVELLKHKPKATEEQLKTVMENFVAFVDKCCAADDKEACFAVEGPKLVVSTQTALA
Method: (§1) The kinetic parameters (both on- and off-rates for interaction with biotin) of streptavidin muteins were determined in real time using the surface plasmon resonance based BIAcoreX biosensor. Biotin-conjugated bovine serum albumin immobilized on CM5 sensor chip was used to study the reversibility of biotin binding (Qureshi, 2001).

[4] = target: T1, biotin-conjugated bovine serum albumin; assay: SPR (BIAcoreX), biotin-conjugated BSA immobilised on CM5 chip, mutein in solution; Kd = kd/ka
Method: as §1

B1: streptavidin mutein M4 (T76R, V125R, V55T, L109T), secreted by B. subtilis (other)
chain: DPSKDSKAQVSAAEAGITGTWYNQLGSTFIVTAGADGALTGTYESAVGNAESRYTLTGRYDSAPATDGSGTALGWRVAWKNNYRNAHSATTWSGQYVGGAEARINTQWTLTSGTTEANAWKSTLRGHDTFTKVKPSAASIDAAKKAGVNNGNPLDAVQQ
notes: Monomeric in solution; also called M4 mutein
- % tetramer, no additional biotin [1]: 0%
- % tetramer, with additional biotin [2]: 0%
- koff [3]: 0.00339 s⁻¹
- kon [3]: 18000 M⁻¹ s⁻¹
- Kd [4]: 187 nM
